Measured values published in article PMC5663475, “SAV1 promotes Hippo kinase activation through antagonizing the PP2A phosphatase STRIPAK” (eLife, 2017).
Non-standard residues stand in square brackets, D forms with d. Residues, ends and D or L forms follow the SMILES beside them. pT = C[C@@H](OP(=O)(O)O)[C@H](N)C(=O)O

How the values were obtained:
[1] = molecular target: T1, MOB1^33-216 (Homo sapiens, UniProt Q9H8S9); assay: ITC, MOB1^33-216 with phospho-MST2 peptides; format: binding; conditions: MicroCal iTC200, 20 °C, 20 mM Tris pH 8.0, 50 mM NaCl, 50 µM protein titrated with 500 µM peptide, measured as controls
T1 construct: recombinant MOB1^33-216 and pT378-MST2 peptides
T1 sequence (Q9H8S9 33-216): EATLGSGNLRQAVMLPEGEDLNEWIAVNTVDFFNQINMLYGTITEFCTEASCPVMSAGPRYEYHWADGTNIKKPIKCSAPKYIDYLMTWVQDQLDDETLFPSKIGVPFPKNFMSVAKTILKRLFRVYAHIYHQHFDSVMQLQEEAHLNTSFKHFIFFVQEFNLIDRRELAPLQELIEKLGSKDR
Description: The binding affinities between purified recombinant human SLMAP-FHA (residues 1–140) and the phospho-MST2 peptides were measured using a MicroCal iTC200 calorimeter (GE Healthcare) at 20 °C. The binding affinities between recombinant MOB1^33-216 and pT378-MST2 peptides were measured as controls. Ratio of protein to peptide concentration was 1:10 for each experiment. A 50 µM SLMAP-FHA or MOB1^33-216 sample in the buffer containing 20 mM Tris, pH 8.0, 50 mM NaCl was titrated with 500 µM of phospho-MST2 peptide in the same buffer. All phospho-MST2 peptides were synthesized with the following sequences: pT325-MST2^320-329, ELDSHpTMVKT; pT336-MST2^331-340, VESVGpTMRAT; pT378-MST2^373-382, EEEDGpTMKRN; and pT378-MST2^371-401, DEEEEDGp[…]. Due to low solubility of pT325-MST2^320-329, 5% (v/v) DMSO was added to both protein and peptide buffers. Peptide concentration was measured using the spectrophotometer at wavelength λ = 205 nm. In all cases, thermograms were integrated using NITPIC method ([Keller et al., 2012]), imported to the SEDPHAT software ([Zhao et al., 2015]), and binding-model fits (A + B < ->AB) were made by fixing the protein concentration adjustment coefficients and allowing the software to adjust peptide concentration by a correction coefficient, as it is not 100% accurate due to the nature of the concentration measurements. […]

[2] = molecular target: human SAV1 WW2 (human) (UniProt Q9H4B6); assay: SEC; recombinant SAV1 WW1 and WW2 on a Superdex 75 gel filtration column
[3] = molecular target: SLMAP (UniProt Q14BN4); assay: anti-FLAG IP, anti-SLMAP blot; conditions: reference: MST2 wild type; sites T325,T336,T378
[4] = molecular target: the molecule itself; assay: AUC + SEC; sedimentation velocity at 4 °C, 50,000 rpm, 20 mM Tris pH 8.0, 200 mM NaCl, 5 mM MgCl2; gel filtration on Superdex 200; co-expressed and co-purified MST2-FL/SAV1 fragment complexes
[5] = test system: MST2; assay: MST2-SAV1 autophosphorylation (pT180); format: biochemical, human; conditions: 2.5 µM MST2-SAV1 complex, dephosphorylated by 0.5 µM PP2A A-C, then 5 µM okadaic acid; 2 mM ATP, anti-pT180 blot; at least two independent experiments
Description: For assaying MST2-SAV1 autophosphorylation, 2.5 µM MST2-SAV1-ΔN198 or MST2-SAV1-ΔN268 was dephosphorylated by 0.5 µM PP2A A-C core complex for 30 min at room temperature. Okadaic acid was then added to a final concentration of 5 µM and the reaction mixture was incubated on ice for another 30 min. The reaction mixture was diluted by a ratio of 1:5 at room temperature with a kinase reaction buffer containing 50 mM Tris (pH 7.5), 150 mM NaCl, 5 mM MgCl2, 2 mM ATP, and 1 mM DTT. At different time intervals, autophosphorylation was terminated by adding 2X SDS loading buffer and boiling for 5 min in 100 °C water bath. All samples were separated by SDS-PAGE and blotted by a specific antibody against pT180 of MST2.

[6] = test system: MST2; assay: In vitro MST2 kinase assay using MOB1 as substrate; format: biochemical, human; conditions: 0.5 nM MST2, 0.4 µM MOB1, pT35-MOB1 quantitative Western blot; two biological replicates
Description: For in vitro kinase assays, 0.4 μM MST2-FL or MST2-ΔL was incubated in the kinase reaction buffer containing 50 mM Tris (pH 7.5), 150 mM NaCl, 10 mM MgCl2, 1 mM ATP, 1 mM DTT, and 0.1 μCi/μl γ-^32P-ATP with 40 μM myelin basic protein (MBP). At different time intervals, an aliquot of reaction mixture was added with equal volume of 2X SDS sample buffer and followed by boiling for 5 min in 100 °C water bath. All samples were separated by SDS-PAGE and analyzed by autoradiography. For in vitro kinase assays using MOB1 as substrate, 0.5 nM MST2 was incubated with 0.4 µM recombinant purified MOB1 in the kinase reaction buffer. The phosphorylated MOB1 was analyzed by quantitative Western blotting using a specific antibody against pT35 of MOB1 (Cell Signaling). The signals were quantified with the Odyssey LI-COR imaging system. For in vitro kinase assays using GST-MST2 D146N as substrate, the kinase reaction was performed with MST2 KD for 30 min at room temperature.

[7] = molecular target: PP2A A subunit (recombinant) (human) (UniProt P30153)
Chain of PP2A A subunit (recombinant) (human) (P30153 whole entry): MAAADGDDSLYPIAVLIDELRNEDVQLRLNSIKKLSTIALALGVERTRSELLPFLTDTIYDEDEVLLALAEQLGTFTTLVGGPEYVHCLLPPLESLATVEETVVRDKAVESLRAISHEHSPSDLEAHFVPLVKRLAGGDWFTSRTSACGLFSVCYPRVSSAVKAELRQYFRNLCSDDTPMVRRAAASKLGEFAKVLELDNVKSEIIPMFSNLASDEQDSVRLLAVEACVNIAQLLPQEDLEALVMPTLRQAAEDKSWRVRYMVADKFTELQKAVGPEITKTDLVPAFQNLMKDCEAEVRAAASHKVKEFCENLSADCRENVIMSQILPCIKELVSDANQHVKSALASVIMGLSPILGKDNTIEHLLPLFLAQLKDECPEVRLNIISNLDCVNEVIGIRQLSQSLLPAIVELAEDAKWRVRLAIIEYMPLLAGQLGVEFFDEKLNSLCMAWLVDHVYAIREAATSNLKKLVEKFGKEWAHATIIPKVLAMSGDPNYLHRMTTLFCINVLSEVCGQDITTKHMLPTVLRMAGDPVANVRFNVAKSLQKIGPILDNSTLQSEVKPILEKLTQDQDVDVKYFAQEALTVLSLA

[8] = test system: PP2A A-C; assay: In vitro PP2A inhibition assay (dephosphorylation of MST2 pT180); format: biochemical; conditions: 0.1 µM PP2A A-C, 1 µM MST2 KD, quantitative Western blot
Description: For PP2A A-C phosphatase inhibition assays, 0.1 µM PP2A A-C was mixed with the indicated concentrations of SAV1^1-90 and incubated at room temperature for 15 min. […] After 30 min incubation, 15 µl reaction mixture was quenched by the addition of the same volume of 2X SDS sample buffer and boiled for 5 min. The remaining pT180 of MST2 was analyzed by quantitative Western blot using a specific antibody against pT180 of MST2.

[9] = test system: PP2A A subunit; assay: Gel filtration co-fractionation of SAV1^1-90 with PP2A A subunit; format: binding; conditions: Superdex 200 gel filtration; PP2A A : SAV1^1-90 1:6 molar ratio; 20 mM Tris pH 8.0, 50 mM NaCl, 1 mM TCEP
Description: The N-terminal fragment of SAV1^1-90 was purified by denaturation method using 8 M urea according to the manufacturer’s instructions (Qiagen). SAV1^1-90 was refolded overnight at 4°C in a buffer containing 50 mM Tris (pH 7.5), 150 mM NaCl, 5 mM MgCl2, and 1 mM DTT. To obtain the PP2A A and SAV1^1-90 complex, PP2A A was mixed with refolded SAV1^1-90 at a 1:6 molar ratio and further purified by a Superdex 200 column equilibrated with a buffer containing 20 mM Tris (pH 8.0), 50 mM NaCl, and 1 mM TCEP. For comparison, PP2A A and SAV1^1-90 alone was run under the same condition, respectively.

[10] = molecular target: T2, MST2-FL (recombinant full-length MST2) (human, UniProt Q13188 1-491); assay: pull-down; GST-SLMAP FHA on glutathione-Sepharose beads as bait, purified MST2 proteins in TBS (50 mM Tris pH 7.5, 150 mM NaCl) with 0.05% Tween, 2 h; Coomassie-stained gel; conditions: both partners purified
T2 construct: MST2, human, full length; also called full-length (FL) MST2; source: E. coli BL21 (DE3)-T1R, purified; alone or co-expressed and co-purified with SAV1 C-terminal fragments
T2 sequence (looked up): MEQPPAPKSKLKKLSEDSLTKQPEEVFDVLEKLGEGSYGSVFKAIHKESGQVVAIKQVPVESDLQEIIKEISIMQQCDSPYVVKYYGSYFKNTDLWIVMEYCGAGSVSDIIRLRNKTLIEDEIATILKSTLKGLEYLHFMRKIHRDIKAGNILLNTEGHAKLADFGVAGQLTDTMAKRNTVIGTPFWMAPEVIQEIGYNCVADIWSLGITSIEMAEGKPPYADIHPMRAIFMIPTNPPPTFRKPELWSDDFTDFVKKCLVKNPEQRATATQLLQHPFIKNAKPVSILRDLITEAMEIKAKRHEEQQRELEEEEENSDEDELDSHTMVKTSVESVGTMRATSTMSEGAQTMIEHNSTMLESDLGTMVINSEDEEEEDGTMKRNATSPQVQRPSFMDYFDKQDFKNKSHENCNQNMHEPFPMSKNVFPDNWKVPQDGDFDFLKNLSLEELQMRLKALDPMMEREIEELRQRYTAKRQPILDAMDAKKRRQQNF

CSCC[C@H](NC(=O)[C@@H](NC(=O)CNC(=O)[C@H](CC(=O)O)NC(=O)[C@H](CCC(=O)O)NC(=O)[C@H](CCC(=O)O)NC(=O)[C@@H](N)CCC(=O)O)[C@@H](C)OP(=O)(O)O)C(=O)N[C@@H](CCCCN)C(=O)N[C@@H](CCCNC(=N)N)C(=O)N[C@@H](CC(N)=O)C(=O)O [pT378-MST2^373-382] (H-EEEDG[pT]MKRN-OH)
Kd [1]: 9.95 µM

human SAV1 WW2 (from UniProt Q9H4B6 1-383) (domain or fragment)
stoichiometry N [2]: 2

CSCC[C@H](NC(=O)[C@H](Cc1ccccc1)NC(=O)[C@H](CO)NC(=O)[C@@H]1CCCN1C(=O)[C@H](CCCNC(=N)N)NC(=O)[C@H](CCC(N)=O)NC(=O)[C@@H](NC(=O)[C@H](CCC(N)=O)NC(=O)[C@@H]1CCCN1C(=O)[C@H](CO)NC(=O)[C@@H](NC(=O)[C@H](C)NC(=O)[C@H](CC(N)=O)NC(=O)[C@H](CCCNC(=N)N)NC(=O)[C@H](CCCCN)NC(=O)[C@H](CCSC)NC(=O)[C@@H](NC(=O)CNC(=O)[C@H](CC(=O)O)NC(=O)[C@H](CCC(=O)O)NC(=O)[C@H](CCC(=O)O)NC(=O)[C@H](CCC(=O)O)NC(=O)[C@H](CCC(=O)O)NC(=O)[C@@H](N)CC(=O)O)[C@@H](C)OP(=O)(O)O)[C@@H](C)O)C(C)C)C(=O)N[C@@H](CC(=O)O)C(=O)N[C@@H](Cc1ccc(O)cc1)C(=O)N[C@@H](Cc1ccccc1)C(=O)N[C@@H](CC(=O)O)C(=O)N[C@@H](CCCCN)C(=O)N[C@@H](CCC(N)=O)C(=O)N[C@@H](CC(=O)O)C(=O)O [pT378-MST2^371-401] (H-DEEEEDG[pT]MKRNATSPQVQRPSFMDYFDKQD-OH)
Kd [1]: 0.296 µM

MST2 (from UniProt Q13188) MST2 3TA
binding against the reference [3]: lost

B1: SAV1-ΔN198 (domain or fragment, human, UniProt Q9H4B6 199-383, looked up)
chain: LPLPPGWSVDWTMRGRKYYIDHNTNTTHWSHPLEREGLPPGWERVESSEFGTYYVDHTNKKAQYRHPCAPSVPRYDQPPPVTYQPQQTERNQSLLVPANPYHTAEIPDWLQVYARAPVKYDHILKWELFQLADLDTYQGMLKLLFMKELEQIVKMYEAYRQALLTELENRKQRQQWYAQQHGKNF
notes: SAV1, human, N-terminal 198 residues deleted (WW1, WW2 and SARAH domains); also called SAV1 ∆N198; SAV1 fragment containing both WW domains and the SARAH domain; source: E. coli BL21 (DE3)-T1R, co-expressed with MST2, purified (glutathione-Sepharose, TEV, Superdex 200); not shown: GST, N-terminal, cleaved
binding result [4]: binds

B2: SAV1 ∆N198: SAV1 mutant which contains WW1/2 and SARAH domains (protein)
chain: B1 chain
modifications: left off: GST, N-terminal, cleaved
notes: SAV1 mutant which contains WW1/2 and SARAH domains
MST2 activation (T180 autophosphorylation) in vitro [5]: could support MST2 auto-activation | stimulation of MST2 kinase activity toward MOB1 [6]: did not stimulate the MST2 kinase activity toward MOB1

B3: SAV1^1-90 (recombinant) (domain or fragment)
chain: MLSRKKTKNEVSKPAEVQGKYVKKETSPLLRNLMPSFIRHGPTIPRRTDICLPDSSPNAFSTSGDVVSRNQSFLRTPIQRTPHEIMRRES
dephosphorylation of MST2 pT180 (1 µM MST2 kinase domain) by 0.1 µM PP2A A-C core in vitro, SAV1 1-90 at the indicated concentrations [7]: 100 µM

B4: SAV1 1–90: N-terminal fragment of SAV1 (residues 1–90), recombinant, refolded (protein)
chain: B3 chain
modifications: left off: FLAG, end not stated, kept
inhibition of PP2A A-C dephosphorylation of MST2 pT180 ([8]; 15 min pre-incubation with SAV1^1-90 at room temperature, 20 mM Tris pH 8.0, 100 mM NaCl, 30 min): blocked the dephosphorylation of MST2 pT180 by PP2A A-C | concentration needed for PP2A A-C inhibition ([8]; "Very high and non-physiological concentrations" needed): 100 µM | co-fractionation with recombinant PP2A A subunit [9]: co-fractionated

B5: GST-SLMAP FHA (residues 1–140) (domain or fragment, human, UniProt Q14BN4 1-140, looked up)
chain: MPSALAIFTCRPNSHPFQERHVYLDEPIKIGRSVARCRPAQNNATFDCKVLSRNHALVWFDHKTGKFYLQDTKSSNGTFINSQRLSRGSEESPPCEILSGDIIQFGVDVTENTRKVTHGCIVSTIKLFLPDGMEARLRSD
notes: SLMAP, human, FHA domain, residues 1-140; also called GST-SLMAP FHA fusion protein; not shown: GST, N-terminal, kept
binding result [10]: binds
